The record followed here is patent US20240294646A1.

In assay [1] the target is FcγRIIb (UniProt P31994). Briefly: SPR (Protocol 2); ratio of the fold for FcγRIIb to the fold for FcγRIIaR.
The target of a further assay is FcγRIIaR (UniProt P12318). Briefly: SPR (Protocol 2), antibody captured on immobilised HER2, receptor as analyte.
For assay [2], the target named is FcγRIIb (UniProt P31994). The assay is described as above.
Assay [3] has as its target Soluble FcγRIIb extracellular domain with C-terminal 10xHis tag (UniProt P31994). As to the kind of experiment: SPR; IIb/IIaR selectivity against control v27294. In general terms: In SPR one partner is held on a chip, and binding of the other changes the refractive index at the surface.
For assay [4] the target is unchanged. As to the kind of experiment: SPR; FcγRIIb affinity fold against control v27294.
The target is the same in assay [5]. Briefly: SPR; IIb-Fold / IIaR-Fold (FcγRIIb over FcγRIIaR).
Assay [6] deals with Soluble FcγRIIaR extracellular domain with C-terminal 10xHis tag (UniProt P12318). As to the kind of experiment: SPR, antibody captured on HER2, receptor as analyte; affinity fold over wild-type v16463.
Soluble FcγRIIaR extracellular domain with C-terminal 10xHis tag, sequence (P12318 other isoform, or with tags, fused parts or gaps): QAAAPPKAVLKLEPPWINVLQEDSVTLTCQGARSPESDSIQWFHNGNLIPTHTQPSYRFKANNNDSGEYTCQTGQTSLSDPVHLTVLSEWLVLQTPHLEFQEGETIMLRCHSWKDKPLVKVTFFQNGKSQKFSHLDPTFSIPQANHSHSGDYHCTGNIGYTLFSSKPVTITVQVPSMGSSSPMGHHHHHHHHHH
The target of assay [7] is Soluble FcγRIIb extracellular domain with C-terminal 10xHis tag (UniProt P31994). The assay is described as above.
Soluble FcγRIIb extracellular domain with C-terminal 10xHis tag, sequence (P31994 other isoform, or with tags, fused parts or gaps): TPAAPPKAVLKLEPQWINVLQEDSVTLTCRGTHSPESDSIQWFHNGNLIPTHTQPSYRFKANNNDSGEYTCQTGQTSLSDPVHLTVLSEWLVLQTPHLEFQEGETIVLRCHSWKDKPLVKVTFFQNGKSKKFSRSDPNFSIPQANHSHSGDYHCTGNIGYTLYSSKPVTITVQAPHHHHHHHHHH

FcγRIIaR, sequence (P12318 34-217): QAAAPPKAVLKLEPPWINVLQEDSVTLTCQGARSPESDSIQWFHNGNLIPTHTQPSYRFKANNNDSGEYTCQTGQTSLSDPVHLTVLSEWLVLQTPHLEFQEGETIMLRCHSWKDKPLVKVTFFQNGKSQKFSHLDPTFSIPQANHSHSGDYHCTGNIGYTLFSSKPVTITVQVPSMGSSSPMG
FcγRIIb, sequence (P31994 43-217): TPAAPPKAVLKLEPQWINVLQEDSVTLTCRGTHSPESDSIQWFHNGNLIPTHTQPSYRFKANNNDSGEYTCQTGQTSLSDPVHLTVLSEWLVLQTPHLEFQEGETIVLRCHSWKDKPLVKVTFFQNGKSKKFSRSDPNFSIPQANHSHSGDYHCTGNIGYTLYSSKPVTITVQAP

As for “Variant 19507 (chain A: G236E / chain B: G236E), one-armed trastuzumab antibody, Scaffold 2”, the IIb/IIaR Selectivity (IIb-Fold/IIaR-Fold) with FcγRIIb [1] is 0.4. Also, the IIaR-Fold (fold change in affinity over wild-type) (fold over wild-type) in the assay with FcγRIIaR turned out to be 1.8. The IIb-Fold (fold change in affinity over wild-type) (fold over wild-type) with FcγRIIb [2] was 0.8.

For the substance “Variant 19518 (chain A: none / chain B: G236D_S239D_H268D), one-armed trastuzumab antibody, Scaffold 2”, in the assay with FcγRIIb [1], the IIb/IIaR Selectivity (IIb-Fold/IIaR-Fold) came out at 2.2. In addition, the IIaR-Fold (fold change in affinity over wild-type) (fold over wild-type) in the assay with FcγRIIaR worked out at 14.7. Further, the IIb-Fold (fold change in affinity over wild-type) (fold over wild-type) with FcγRIIb [2] worked out at 32.9.

Consider “Variant 19517 (chain A: G236D / chain B: S239D_H268D), one-armed trastuzumab antibody, Scaffold 2”, for which the IIb/IIaR Selectivity (IIb-Fold/IIaR-Fold) with FcγRIIb [1] turned out to be 2.6. Moreover, in the assay with FcγRIIaR, the IIaR-Fold (fold change in affinity over wild-type) (fold over wild-type) turned out to be 11.6. In the assay with FcγRIIb [2], the IIb-Fold (fold change in affinity over wild-type) (fold over wild-type) came out at 30.5.

Take “Variant 19509 (chain A: G236N / chain B: S239D_H268D), one-armed trastuzumab antibody, Scaffold 2”: in the assay with FcγRIIb [1], the IIb/IIaR Selectivity (IIb-Fold/IIaR-Fold) came to 3.3. Moreover, the IIaR-Fold (fold change in affinity over wild-type) (fold over wild-type) in the assay with FcγRIIaR is 9.7. Moreover, the IIb-Fold (fold change in affinity over wild-type) (fold over wild-type) with FcγRIIb [2] was 31.8.

“Variant 19699 (chain A: G236D_G237F / chain B: G236D_G237F), one-armed trastuzumab antibody, Scaffold 2”: the IIb/IIaR Selectivity (IIb-Fold/IIaR-Fold) in the assay with FcγRIIb [1] is 7. Also, the IIaR-Fold (fold change in affinity over wild-type) (fold over wild-type) with FcγRIIaR amounted to 0.3. In the assay with FcγRIIb [2], the IIb-Fold (fold change in affinity over wild-type) (fold over wild-type) was found to be 2.1.

As to “Variant 19526 (chain A: G236D / chain B: G236K_S239D_H268D), one-armed trastuzumab antibody, Scaffold 2”, the IIb/IIaR Selectivity (IIb-Fold/IIaR-Fold) in the assay with FcγRIIb [1] came to 3.5. For the same substance, the IIaR-Fold (fold change in affinity over wild-type) (fold over wild-type) with FcγRIIaR amounted to 0.4. In the assay with FcγRIIb [2], the IIb-Fold (fold change in affinity over wild-type) (fold over wild-type) was found to be 1.4.

For “Variant 19520 (chain A: none / chain B: G236E_S239D_H268D), one-armed trastuzumab antibody, Scaffold 2”, in the assay with FcγRIIb [1], the IIb/IIaR Selectivity (IIb-Fold/IIaR-Fold) is 1.5. Further, the IIaR-Fold (fold change in affinity over wild-type) (fold over wild-type) with FcγRIIaR amounted to 17.5. Further, in the assay with FcγRIIb [2], the IIb-Fold (fold change in affinity over wild-type) (fold over wild-type) came to 26.5.

Take “Variant 19694 (chain A: none / chain B: G236D_G237F_S239D_H268D), one-armed trastuzumab antibody, Scaffold 2”: the IIb/IIaR Selectivity (IIb-Fold/IIaR-Fold) with FcγRIIb [1] stood at 2.9. Besides, the IIaR-Fold (fold change in affinity over wild-type) (fold over wild-type) with FcγRIIaR was 18.2. For the same substance, in the assay with FcγRIIb [2], the IIb-Fold (fold change in affinity over wild-type) (fold over wild-type) is 53.5.

With “Variant 19504 (chain A: G236N_G237F / chain B: G236N_G237F), one-armed trastuzumab antibody, Scaffold 2”, in the assay with FcγRIIb [1], the IIb/IIaR Selectivity (IIb-Fold/IIaR-Fold) amounted to 3.3. Besides, the IIaR-Fold (fold change in affinity over wild-type) (fold over wild-type) with FcγRIIaR stood at 0.05. The IIb-Fold (fold change in affinity over wild-type) (fold over wild-type) with FcγRIIb [2] worked out at 0.2.

For “Variant 19524 (chain A: G236Q / chain B: G236D_S239D_H268D), one-armed trastuzumab antibody, Scaffold 2”, the IIb/IIaR Selectivity (IIb-Fold/IIaR-Fold) with FcγRIIb [1] was 1.2. For the same substance, the IIaR-Fold (fold change in affinity over wild-type) (fold over wild-type) with FcγRIIaR turned out to be 8.9. For the same substance, the IIb-Fold (fold change in affinity over wild-type) (fold over wild-type) with FcγRIIb [2] amounted to 10.3.

With “Variant 19513 (chain A: G236H / chain B: S239D_H268D), one-armed trastuzumab antibody, Scaffold 2”, the IIb/IIaR Selectivity (IIb-Fold/IIaR-Fold) with FcγRIIb [1] was 0.6. The IIaR-Fold (fold change in affinity over wild-type) (fold over wild-type) with FcγRIIaR was determined as 13.4. Besides, the IIb-Fold (fold change in affinity over wild-type) (fold over wild-type) in the assay with FcγRIIb [2] was found to be 8.2.

“Variant 19512 (chain A: none / chain B: G236N_S239D_H268D), one-armed trastuzumab antibody, Scaffold 2”: the IIb/IIaR Selectivity (IIb-Fold/IIaR-Fold) with FcγRIIb [1] came out at 2.5. The IIaR-Fold (fold change in affinity over wild-type) (fold over wild-type) with FcγRIIaR amounted to 3.2. The IIb-Fold (fold change in affinity over wild-type) (fold over wild-type) in the assay with FcγRIIb [2] stood at 7.9.

On to “Variant 19523 (chain A: G236D / chain B: G236N_S239D_H268D), one-armed trastuzumab antibody, Scaffold 2”, for which the IIb/IIaR Selectivity (IIb-Fold/IIaR-Fold) with FcγRIIb [1] worked out at 3.6. In addition, the IIaR-Fold (fold change in affinity over wild-type) (fold over wild-type) with FcγRIIaR amounted to 1.9. The IIb-Fold (fold change in affinity over wild-type) (fold over wild-type) with FcγRIIb [2] was 6.9.

With “Variant 19510 (chain A: G236N_G237A / chain B: S239D_H268D), one-armed trastuzumab antibody, Scaffold 2”, in the assay with FcγRIIb [1], the IIb/IIaR Selectivity (IIb-Fold/IIaR-Fold) turned out to be 3.1. For the same substance, in the assay with FcγRIIaR, the IIaR-Fold (fold change in affinity over wild-type) (fold over wild-type) worked out at 1.8. Besides, the IIb-Fold (fold change in affinity over wild-type) (fold over wild-type) in the assay with FcγRIIb [2] stood at 5.5.

For “Variant 19519 (chain A: G236E / chain B: S239D_H268D), one-armed trastuzumab antibody, Scaffold 2”, the IIb/IIaR Selectivity (IIb-Fold/IIaR-Fold) in the assay with FcγRIIb [1] came out at 0.3. Moreover, in the assay with FcγRIIaR, the IIaR-Fold (fold change in affinity over wild-type) (fold over wild-type) is 30.9. Further, the IIb-Fold (fold change in affinity over wild-type) (fold over wild-type) with FcγRIIb [2] is 10.3.

Turning to “Variant 19525 (chain A: G236D / chain B: G236Q_S239D_H268D), one-armed trastuzumab antibody, Scaffold 2”, the IIb/IIaR Selectivity (IIb-Fold/IIaR-Fold) with FcγRIIb [1] came to 3.7. Moreover, in the assay with FcγRIIaR, the IIaR-Fold (fold change in affinity over wild-type) (fold over wild-type) came out at 2.1. Further, the IIb-Fold (fold change in affinity over wild-type) (fold over wild-type) with FcγRIIb [2] amounted to 7.7.

“Variant 19511 (chain A: G236N_G237F / chain B: S239D_H268D), one-armed trastuzumab antibody, Scaffold 2”: the IIb/IIaR Selectivity (IIb-Fold/IIaR-Fold) with FcγRIIb [1] turned out to be 1.2. Also, in the assay with FcγRIIaR, the IIaR-Fold (fold change in affinity over wild-type) (fold over wild-type) worked out at 5.7. Besides, the IIb-Fold (fold change in affinity over wild-type) (fold over wild-type) in the assay with FcγRIIb [2] is 7.1.

Regarding “Variant 19527 (chain A: G236N / chain B: G236K_S239D_H268D), one-armed trastuzumab antibody, Scaffold 2”, the IIb/IIaR Selectivity (IIb-Fold/IIaR-Fold) with FcγRIIb [1] is 6. Besides, the IIaR-Fold (fold change in affinity over wild-type) (fold over wild-type) in the assay with FcγRIIaR was 0.2. Besides, the IIb-Fold (fold change in affinity over wild-type) (fold over wild-type) in the assay with FcγRIIb [2] came to 1.2.

Consider “Variant 19521 (chain A: G236N / chain B: G236D_S239D_H268D), one-armed trastuzumab antibody, Scaffold 2”, for which, in the assay with FcγRIIb [1], the IIb/IIaR Selectivity (IIb-Fold/IIaR-Fold) was determined as 6.8. Also, the IIaR-Fold (fold change in affinity over wild-type) (fold over wild-type) with FcγRIIaR was determined as 5.5. Further, the IIb-Fold (fold change in affinity over wild-type) (fold over wild-type) with FcγRIIb [2] stood at 37.6.

“Variant 16490 (chain A: G236D / chain B: G236D), one-armed trastuzumab antibody, Scaffold 2”: the IIb/IIaR Selectivity (IIb-Fold/IIaR-Fold) with FcγRIIb [1] was 2.4. The IIaR-Fold (fold change in affinity over wild-type) (fold over wild-type) with FcγRIIaR was 0.9. The IIb-Fold (fold change in affinity over wild-type) (fold over wild-type) with FcγRIIb [2] came out at 2.1.

As for “Variant 19503 (chain A: G236N_G237A / chain B: G236N_G237A), one-armed trastuzumab antibody, Scaffold 2”, the IIb/IIaR Selectivity (IIb-Fold/IIaR-Fold) with FcγRIIb [1] is 4.5. The IIaR-Fold (fold change in affinity over wild-type) (fold over wild-type) with FcγRIIaR was found to be 0.04. The IIb-Fold (fold change in affinity over wild-type) (fold over wild-type) with FcγRIIb [2] came out at 0.2.

“Variant 19531 (chain A: G236D / chain B: G236H_S239D_H268D), one-armed trastuzumab antibody, Scaffold 2”: the IIb/IIaR Selectivity (IIb-Fold/IIaR-Fold) in the assay with FcγRIIb [1] was 2.3. In addition, the IIaR-Fold (fold change in affinity over wild-type) (fold over wild-type) in the assay with FcγRIIaR is 1.6. The IIb-Fold (fold change in affinity over wild-type) (fold over wild-type) with FcγRIIb [2] worked out at 3.7.

Turning to “Variant 19514 (chain A: none / chain B: G236H_S239D_H268D), one-armed trastuzumab antibody, Scaffold 2”, the IIb/IIaR Selectivity (IIb-Fold/IIaR-Fold) with FcγRIIb [1] stood at 1.7. For the same substance, the IIaR-Fold (fold change in affinity over wild-type) (fold over wild-type) with FcγRIIaR stood at 2.5. For the same substance, the IIb-Fold (fold change in affinity over wild-type) (fold over wild-type) in the assay with FcγRIIb [2] was 4.2.

For “Variant 19528 (chain A: G236N / chain B: G236S_S239D_H268D), one-armed trastuzumab antibody, Scaffold 2”, the IIb/IIaR Selectivity (IIb-Fold/IIaR-Fold) with FcγRIIb [1] turned out to be 2.8. Besides, the IIaR-Fold (fold change in affinity over wild-type) (fold over wild-type) with FcγRIIaR amounted to 6.7. For the same substance, in the assay with FcγRIIb [2], the IIb-Fold (fold change in affinity over wild-type) (fold over wild-type) is 18.6.

As to “Variant 19508 (chain A: none / chain B: S239D_H268D), one-armed trastuzumab antibody, Scaffold 2”, the IIb/IIaR Selectivity (IIb-Fold/IIaR-Fold) with FcγRIIb [1] came to 1.2. Besides, the IIaR-Fold (fold change in affinity over wild-type) (fold over wild-type) with FcγRIIaR was 25.6. For the same substance, the IIb-Fold (fold change in affinity over wild-type) (fold over wild-type) with FcγRIIb [2] is 31.1.

Regarding “Variant 16493 (chain A: G236N / chain B: G236N), one-armed trastuzumab antibody, Scaffold 2”, in the assay with FcγRIIb [1], the IIb/IIaR Selectivity (IIb-Fold/IIaR-Fold) came out at 3.1. In addition, the IIaR-Fold (fold change in affinity over wild-type) (fold over wild-type) with FcγRIIaR amounted to 0.3. For the same substance, the IIb-Fold (fold change in affinity over wild-type) (fold over wild-type) in the assay with FcγRIIb [2] amounted to 0.8.

“Variant v26757, A_E272D_strat2, one-armed trastuzumab antibody”: the IIb Selectivity Improvement wrt Control in assay [3] worked out at 1 fold. Also, the IIb-Fold wrt Control in assay [4] came to 0.7 fold. The IIb Selectivity in assay [5] came out at 13.5 fold. In assay [6], this substance had an IIaR-fold of 4.9 fold. In assay [7], this substance displayed an IIb-Fold of 66.6 fold.

Consider “Variant v26715, A_D270I_strat2, one-armed trastuzumab antibody”, for which, in assay [3], the IIb Selectivity Improvement wrt Control came out at 1.1 fold. In assay [4], this substance yielded an IIb-Fold wrt Control of 0.6 fold. The substance also displayed an IIb Selectivity in assay [5] of 15.2 fold. In assay [6], this substance returned an IIaR-fold of 3.8 fold. The IIb-Fold in assay [7] is 57.9 fold.
